One test has as its target purified Hsp90-Y313E (UniProt P07900).
For another test, the target named is purified wild type Hsp90 (UniProt P07900).

As a reminder, the Kd is the concentration at which binding is half-saturated. A low value points to a tighter complex.

On to “purified AHA1 protein (from UniProt O95433 1-338) (natural protein)”, for which the results for the dissociation constant Kd in the test with purified Hsp90-Y313E and in the test with purified wild type Hsp90 were 3.7 µM and 13 µM, respectively.

For the origin of these results see PMC3418412.
